# Reference: US20250134988A1
# Target: CoV2_5P_FPKO1 (SARS-CoV-2) (UniProt P0DTC2)
# Experiment: ELISA
substance,measurement,value
CR3022 (antibody),EC50 (read off the curve),0.01 µg/mL
